Assay results as given in publication doi:10.1101/2020.04.07.030676.

Molecular target: soluble αβ-tubulin heterodimer (bovine) (UniProt Q6B856)
Assay: ITC

- Kd: 630 nM
- stoichiometry N: 1
B1: MEKK1 TOG domain, MEKK1(542–888) (domain or fragment)
chain: THYGTQQIPPAYKDLAEPWIQVFGMELVGCLFSRNWNVREMALRRLSHDVSGALLLANGESTGNSGGSSGSSPSGGATSGSSQTSISGDVVEACCSVLSMVCADPVYKVYVAALKTLRAMLVYTPCHSLAERIKLQRLLQPVVDTILVKCADANSRTSQLSISTLLELCKGQAGELAVGREILKAGSIGIGGVDYVLNCILGNQTESNNWQELLGRLCLIDRLLLEFPAEFYPHIVSTDVSQAEPVEIRYKKLLSLLTFALQSIDNSHSMVGKLSRRIYLSSARMVTTVPHVFSKLLEMLSVSSSTHFTRMRRRLMAIADEVEIAEAIQLGVEDTLDGQQDSFLQAS
